In paper doi:10.1101/2024.12.16.628697:

Biological target: USP1/UAF1 (UniProt O94782)
Test: global kinetic fit

Sequence of UniProt O94782 (O94782 21-785 G670A/G671A, chain 1 of 2): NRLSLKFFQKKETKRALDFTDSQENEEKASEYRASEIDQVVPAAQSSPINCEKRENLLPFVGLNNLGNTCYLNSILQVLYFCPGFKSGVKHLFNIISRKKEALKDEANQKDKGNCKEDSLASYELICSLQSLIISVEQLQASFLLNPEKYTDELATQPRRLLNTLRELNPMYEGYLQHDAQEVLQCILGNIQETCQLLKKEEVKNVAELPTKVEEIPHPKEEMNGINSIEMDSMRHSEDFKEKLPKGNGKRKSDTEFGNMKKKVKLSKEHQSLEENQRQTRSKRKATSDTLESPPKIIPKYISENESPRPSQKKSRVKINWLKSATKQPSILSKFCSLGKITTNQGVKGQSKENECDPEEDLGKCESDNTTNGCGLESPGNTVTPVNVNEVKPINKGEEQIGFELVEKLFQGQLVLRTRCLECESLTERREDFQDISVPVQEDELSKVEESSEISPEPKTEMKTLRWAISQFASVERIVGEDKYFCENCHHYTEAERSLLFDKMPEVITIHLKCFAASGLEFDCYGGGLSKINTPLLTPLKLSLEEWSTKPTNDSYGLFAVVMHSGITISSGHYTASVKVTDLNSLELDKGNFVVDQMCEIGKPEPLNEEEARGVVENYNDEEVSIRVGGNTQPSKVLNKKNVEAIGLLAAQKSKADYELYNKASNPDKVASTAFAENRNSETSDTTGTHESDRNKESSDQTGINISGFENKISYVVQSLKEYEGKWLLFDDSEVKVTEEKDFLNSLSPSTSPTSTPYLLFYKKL
Sequence of UniProt O94782 (Q8TAF3 9-677, chain 2 of 2, further chain): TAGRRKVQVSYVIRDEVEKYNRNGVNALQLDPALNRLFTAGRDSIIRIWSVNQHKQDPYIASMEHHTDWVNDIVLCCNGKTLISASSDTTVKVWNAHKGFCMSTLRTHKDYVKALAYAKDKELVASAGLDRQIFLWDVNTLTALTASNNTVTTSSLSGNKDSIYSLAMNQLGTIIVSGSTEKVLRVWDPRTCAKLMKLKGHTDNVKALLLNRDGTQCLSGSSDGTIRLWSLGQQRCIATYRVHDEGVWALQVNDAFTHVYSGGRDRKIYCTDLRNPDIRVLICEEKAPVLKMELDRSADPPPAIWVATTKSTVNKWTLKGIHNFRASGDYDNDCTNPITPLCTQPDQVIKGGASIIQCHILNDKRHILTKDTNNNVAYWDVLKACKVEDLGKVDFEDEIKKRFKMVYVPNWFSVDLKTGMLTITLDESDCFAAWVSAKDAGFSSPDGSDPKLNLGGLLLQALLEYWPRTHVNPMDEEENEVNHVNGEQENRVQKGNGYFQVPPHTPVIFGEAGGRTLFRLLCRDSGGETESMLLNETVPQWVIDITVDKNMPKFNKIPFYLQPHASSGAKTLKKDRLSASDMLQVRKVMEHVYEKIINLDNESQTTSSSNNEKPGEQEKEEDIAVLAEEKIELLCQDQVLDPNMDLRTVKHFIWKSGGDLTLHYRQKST

K63-linked diubiquitinated PCNA (K63-PCNA-Ub2) (from UniProt P12004 1-261; P0CG48 1-76; P0CG48 1-76) (complex)
koff: 1240 s⁻¹
